From publication PMC2186984 come the findings set out here.

This experiment concerns the target cell-bound C4b (on EAC4 or EAC14 cells) (human) (UniProt P0C0L4). In words: radioligand binding.

B1: radiolabelled C4-binding protein (125I-C4-bp or 131I-C4-bp) (natural protein)
chain: NCGPPPTLSFAAPMDITLTETRFKTGTTLKYTCLPGYVRSHSTQTLTCNSDGEWVYNTFCIYKRCRHPGELRNGQVEIKTDLSFGSQIEFSCSEGFFLIGSTTSRCEVQDRGVGWSHPLPQCEIVKCKPPPDIRNGRHSGEENFYAYGFSVTYSCDPRFSLLGHASISCTVENETIGVWRPSPPTCEKITCRKPDVSHGEMVSGFGPIYNYKDTIVFKCQKGFVLRGSSVIHCDADSKWNPSPPACEPNSCINLPDIPHASWETYPRPTKEDVYVVGTVLRYRCHPGYKPTTDEPTTVICQKNLRWTPYQGCEALCCPEPKLNNGEITQHRKSRPANHCVYFYGDEISFSCHETSRFSAICQGDGTWSPRTPSCGDICNFPPKIAHGHYKQSSSYSFFKEEIIYECDKGYILVGQAKLSCSYSHWSAPAPQCKALCRKPELVNGRLSVDKDQYVEPENVTIQCDSGYGVVGPQSITCSGNRTWYPEVPKCEWETPEGCEQVLTGKRLMQCLPNPEDVKMALEVYKLSLEIEQLELQRDSARQSTLDKEL
modifications: 125I or 131I label (iodinated by means of Enzymobeads)
As for B1, the Ka amounted to 4.6e+08 M⁻¹, the percent of 125I-C4-bp incorporated into the cells amounted to 10.5%, the percent of bound C4-bp released in the absence of C2 was 8% and the stoichiometry N (C4-bp molecules bound per C4b molecule) worked out at 0.43.

B2: C2 (natural protein)
chain: APSCPQNVNISGGTFTLSHGWAPGSLLTYSCPQGLYPSPASRLCKSSGQWQTPGATRSLSKAVCKPVRCPAPVSFENGIYTPRLGSYPVGGNVSFECEDGFILRGSPVRQCRPNGMWDGETAVCDNGAGHCPNPGISLGAVRTGFRFGHGDKVRYRCSSNLVLTGSSERECQGNGVWSGTEPICRQPYSYDFPEDVAPALGTSFSHMLGATNPTQKTKESLGRKIQIQRSGHLNLYLLLDCSQSVSENDFLIFKESASLMVDRIFSFEINVSVAIITFASEPKVLMSVLNDNSRDMTEVISSLENANYKDHENGTGTNTYAALNSVYLMMNNQMRLLGMETMAWQEIRHAIILLTDGKSNMGGSPKTAVDHIREILNINQKRNDYLDIYAIGVGKLDVDWRELNELGSKKDGERHAFILQDTKALHQVFEHMLDVSKLTDTICGVGNMSANASDQERTPWHVTIKPKSQETCRGALISDQWVLTAAHCFRDGNDHSLWRVNVGDPKSQWGKEFLIEKAVISPGFDVFAKKNQGILEFYGDDIALLKLAQKVKMSTHARPICLPCTMEANLALRRPQGSTCRDHENELLNKQSVPAHFVALNGSKLNINLKMGVEWTSCAEVVSQEKTMFPNLTDVREVVTDQFLCSGTQEDESPCKGESGGAVFLERRFRFFQVGLVSWGLYNPCLGSADKNSRKRAPRSKVPPPRDFHINLFRMQPWLRQHLGDVLNFLPL
For B2, the maximum percent of bound 125I-C4-bp released by C2 was determined as 50%.
